76 variants from the RNAGym collection of RNA variant scans (doi:10.7554/elife.80360) can be followed below.

To fix the notation:
B1: Hairpin Ribozyme (parent)
chain: GUCCUCUUUCACGUGCGCGUGAAAGAGAGAAGUGAACCAGAGAAACACACGUUGUGGUAUAUUACCUGGUA

The variants in the series derive from B1. The series can be described thus: self-cleavage, relative activity (ratio to wild type); higher = more cleavage; co-transcriptional.
Turning to GUCCUCUUUCACGUGCGCGUGAAAGAGAGAAGUGAACCAGAGAAACACACCUUGUGGUAUCUUACCUGGUA, the self-cleavage was found to be 0.0996. For the variant GUCCUCUUUCACGUGCGCGUGAAAGAGAGAAGUGAACCAGAGAAACACACAUUGUGGUAUAUUACCUGGCA, the self-cleavage is 1.1. In the case of GUCCUCUUUCACGUGCGCGUGAAAGAGAGAAGUGAACCAGAGAAACACACAUUGUGGUAUAUUACCUGGAA, the self-cleavage was 1.09.

In the case of GUCCUCUUUCACGUGCGCGUGAAAGAGAGAAGUGAACCAGAGAAACACACAUUGUGGUAUAUUUCCUGGUA, the self-cleavage amounted to 0.22. For GUCCUCUUUCACGUGCGCGUGAAAGAGAGAAGUGAACCAGAGAAACACACAUUAUGGUAUAUUACCUGGUA the value was 0.62; for GUCCUCUUUCACGUGCGCGUGAAAGAGAGAAGUGAACCAGAGAAACACACAUUUUGGUAUAUUACCUGGUA, 0.649; for GUCCUCUUUCACGUGCGCGUGAAAGAGAGAAGUGAACCAGAGAAACACACCCUGUGGUAUAUUACCUGGUA, 1.16. For GUCCUCUUUCACGUGCGCGUGAAAGAGAGAAGUGAACCAGAGAAACACAUGUUGUGGUAUAAUACCUGGUA the value was 0.185. As to GUCCUCUUUCACGUGCGCGUGAAAGAGAGAAGUGAACCAGAGAAACACACCUUGUGGUAUAUUACUUGGUA, the self-cleavage was 0.452.

In the case of GUCCUCUUUCACGUGCGCGUGAAAGAGAGAAGUGAACCAGAGAAACACACCUUGUGGUAUAUUACAUGGUA, the self-cleavage is 0.184. Regarding GUCCUCUUUCACGUGCGCGUGAAAGAGAGAAGUGAACCAGAGAAACACACCUAGUGGUAUAUUACCUGGUA, the self-cleavage was 0.72. For GUCCUCUUUCACGUGCGCGUGAAAGAGAGAAGUGAACCAGAGAAACACAUGUUGUGGUAUAUUACCUUGUA the value was 0.16.

Take GUCCUCUUUCACGUGCGCGUGAAAGAGAGAAGUGAACCAGAGAAACACACAUUGUGGUAUAAUACCUGGUA: the self-cleavage was determined as 0.137. For GUCCUCUUUCACGUGCGCGUGAAAGAGAGAAGUGAACCAGAGAAACACACAUUGUGGUAUACUACCUGGUA the value was 0.364. As to GUCCUCUUUCACGUGCGCGUGAAAGAGAGAAGUGAACCAGAGAAACACACAUUGUGGUAUAUUACCUGGUA, the self-cleavage came to 1.03.

For GUCCUCUUUCACGUGCGCGUGAAAGAGAGAAGUGAACCAGAGAAACACACCUUGUGGUAUAUUACCUGGUA, the self-cleavage was 0.876. For GUCCUCUUUCACGUGCGCGUGAAAGAGAGAAGUGAACCAGAGAAACACAUAUUGUGGUAUAUUACCUGGUA the value was 0.322; for GUCCUCUUUCACGUGCGCGUGAAAGAGAGAAGUGAACCAGAGAAACACAUUUUGUGGUAUAUUACCUGGUA, 0.424; for GUCCUCUUUCACGUGCGCGUGAAAGAGAGAAGUGAACCAGAGAAACACAUGUUUUGGUAUAUUACCUGGUA, 0.905. For GUCCUCUUUCACGUGCGCGUGAAAGAGAGAAGUGAACCAGAGAAACACAUGUUGUGGUGUAUUACCUGGUA the value was 0.204; for GUCCUCUUUCACGUGCGCGUGAAAGAGAGAAGUGAACCAGAGAAACACAUGUUGUGGUCUAUUACCUGGUA, 0.166; for GUCCUCUUUCACGUGCGCGUGAAAGAGAGAAGUGAACCAGAGAAACACAUGUUGUGGUAUAUUACCUGCUA, 0.142. For GUCCUCUUUCACGUGCGCGUGAAAGAGAGAAGUGAACCAGAGAAACACAUGUUGUGGUAUAUUACCUGAUA the value was 0.112.

Turning to GUCCUCUUUCACGUGCGCGUGAAAGAGAGAAGUGAACCAGAGAAACACACAUUGUGGUAUAUUACCUGGUU, the self-cleavage was 0.718. GUCCUCUUUCACGUGCGCGUGAAAGAGAGAAGUGAACCAGAGAAACACACAUUGUGGUAUAUUACCUGGUG: the self-cleavage was determined as 0.934. For GUCCUCUUUCACGUGCGCGUGAAAGAGAGAAGUGAACCAGAGAAACACACAUUGUGGUAUAUUACAUGGUA the value was 0.344; for GUCCUCUUUCACGUGCGCGUGAAAGAGAGAAGUGAACCAGAGAAACACAUGUUGUGGUAUAUUACCGGGUA, 0.181; for GUCCUCUUUCACGUGCGCGUGAAAGAGAGAAGUGAACCAGAGAAACACAUGUUGUGGUAUAUUACCAGGUA, 0.2. For GUCCUCUUUCACGUGCGCGUGAAAGAGAGAAGUGAACCAGAGAAACACAUGUUGUGGUAUAUUACCUGGUG the value was 0.457. Regarding GUCCUCUUUCACGUGCGCGUGAAAGAGAGAAGUGAACCAGAGAAACACAUGUUGUGGUAUUUUACCUGGUA, the self-cleavage stood at 0.13. For GUCCUCUUUCACGUGCGCGUGAAAGAGAGAAGUGAACCAGAGAAACACAUGUUGUGGUAUCUUACCUGGUA the value was 0.181; for GUCCUCUUUCACGUGCGCGUGAAAGAGAGAAGUGAACCAGAGAAACACAGGUUGUGGUAUAUUACCUGGCA, 0.498.

On to GUCCUCUUUCACGUGCGCGUGAAAGAGAGAAGUGAACCAGAGAAACACACCUUGUGGUAUAUUACCUAGUA, for which the self-cleavage came to 0.254. For GUCCUCUUUCACGUGCGCGUGAAAGAGAGAAGUGAACCAGAGAAACACACCUUGUGGUAUAUUACCUCGUA, the self-cleavage was 0.322. Take GUCCUCUUUCACGUGCGCGUGAAAGAGAGAAGUGAACCAGAGAAACACAUGUUGUUGUAUAUUACCUGGUA: the self-cleavage amounted to 0.121. For GUCCUCUUUCACGUGCGCGUGAAAGAGAGAAGUGAACCAGAGAAACACACAUUGUGGUAUAUUACCCGGUA the value was 0.296; for GUCCUCUUUCACGUGCGCGUGAAAGAGAGAAGUGAACCAGAGAAACACACAUUGUGGUAUAUUACCAGGUA, 0.291. For GUCCUCUUUCACGUGCGCGUGAAAGAGAGAAGUGAACCAGAGAAACACAUGAUGUGGUAUAUUACCUGGUA the value was 0.456. For GUCCUCUUUCACGUGCGCGUGAAAGAGAGAAGUGAACCAGAGAAACACAUGCUGUGGUAUAUUACCUGGUA the value was 0.343; for GUCCUCUUUCACGUGCGCGUGAAAGAGAGAAGUGAACCAGAGAAACACAUGUUGUGGUAUAUUACGUGGUA, 0.166; for GUCCUCUUUCACGUGCGCGUGAAAGAGAGAAGUGAACCAGAGAAACACAUGUUGUGGUAUAUUACAUGGUA, 0.165.

For GUCCUCUUUCACGUGCGCGUGAAAGAGAGAAGUGAACCAGAGAAACACACCUUGUGGUGUAUUACCUGGUA, the self-cleavage worked out at 0.166. For GUCCUCUUUCACGUGCGCGUGAAAGAGAGAAGUGAACCAGAGAAACACACCUUGUGGUUUAUUACCUGGUA the value was 0.172. As to GUCCUCUUUCACGUGCGCGUGAAAGAGAGAAGUGAACCAGAGAAACACAGGUUGUGGUAUAUGACCUGGUA, the self-cleavage was determined as 0.0983. For GUCCUCUUUCACGUGCGCGUGAAAGAGAGAAGUGAACCAGAGAAACACAGGUUGUGGGAUAUUACCUGGUA the value was 0.147. For GUCCUCUUUCACGUGCGCGUGAAAGAGAGAAGUGAACCAGAGAAACACAGGUUGCGGUAUAUUACCUGGUA the value was 0.16; for GUCCUCUUUCACGUGCGCGUGAAAGAGAGAAGUGAACCAGAGAAACACAUGUUGUGCUAUAUUACCUGGUA, 0.16; for GUCCUCUUUCACGUGCGCGUGAAAGAGAGAAGUGAACCAGAGAAACACAUGUUGUGUUAUAUUACCUGGUA, 0.183. For GUCCUCUUUCACGUGCGCGUGAAAGAGAGAAGUGAACCAGAGAAACACAUGUUGUGGUAUAUUCCCUGGUA the value was 0.159; for GUCCUCUUUCACGUGCGCGUGAAAGAGAGAAGUGAACCAGAGAAACACAUGUUGUGGUAUAUUUCCUGGUA, 0.0365; for GUCCUCUUUCACGUGCGCGUGAAAGAGAGAAGUGAACCAGAGAAACACACAUCGUGGUAUAUUACCUGGUA, 1.28. Turning to GUCCUCUUUCACGUGCGCGUGAAAGAGAGAAGUGAACCAGAGAAACACACAUUGUGGUCUAUUACCUGGUA, the self-cleavage amounted to 0.181.

For the variant GUCCUCUUUCACGUGCGCGUGAAAGAGAGAAGUGAACCAGAGAAACACAGGUUGUGGUAUAUUACCCGGUA, the self-cleavage amounted to 0.0994. For GUCCUCUUUCACGUGCGCGUGAAAGAGAGAAGUGAACCAGAGAAACACACCUUGUGGUAUAUUACCUGGUC the value was 1.3; for GUCCUCUUUCACGUGCGCGUGAAAGAGAGAAGUGAACCAGAGAAACACACCUUGUGGUAUAUUACCUGGUG, 0.814; for GUCCUCUUUCACGUGCGCGUGAAAGAGAGAAGUGAACCAGAGAAACACAUGUUGUGGUAUAUCACCUGGUA, 0.217. For GUCCUCUUUCACGUGCGCGUGAAAGAGAGAAGUGAACCAGAGAAACACAUGUUGUGGUAUAUGACCUGGUA the value was 0.198.

With GUCCUCUUUCACGUGCGCGUGAAAGAGAGAAGUGAACCAGAGAAACACAUGUUGUGGUAUAUAACCUGGUA, the self-cleavage came to 0.172. As for GUCCUCUUUCACGUGCGCGUGAAAGAGAGAAGUGAACCAGAGAAACACACCUUGUGGUAGAUUACCUGGUA, the self-cleavage is 0.62. As for GUCCUCUUUCACGUGCGCGUGAAAGAGAGAAGUGAACCAGAGAAACACACAUUGUGGUAUAUUACCUGCUA, the self-cleavage was determined as 0.467. For GUCCUCUUUCACGUGCGCGUGAAAGAGAGAAGUGAACCAGAGAAACACAGGUUGUGGUAUAGUACCUGGUA the value was 0.151; for GUCCUCUUUCACGUGCGCGUGAAAGAGAGAAGUGAACCAGAGAAACACAGGUUGUGGUAUACUACCUGGUA, 0.158; for GUCCUCUUUCACGUGCGCGUGAAAGAGAGAAGUGAACCAGAGAAACACAUGUUGAGGUAUAUUACCUGGUA, 0.32.

GUCCUCUUUCACGUGCGCGUGAAAGAGAGAAGUGAACCAGAGAAACACAUGUUGCGGUAUAUUACCUGGUA: the self-cleavage amounted to 0.615. For GUCCUCUUUCACGUGCGCGUGAAAGAGAGAAGUGAACCAGAGAAACACAUGUUGUGGUAUAUUAGCUGGUA the value was 0.161; for GUCCUCUUUCACGUGCGCGUGAAAGAGAGAAGUGAACCAGAGAAACACAGGGUGUGGUAUAUUACCUGGUA, 0.312. For GUCCUCUUUCACGUGCGCGUGAAAGAGAGAAGUGAACCAGAGAAACACAUGUUGUGGGAUAUUACCUGGUA the value was 0.262; for GUCCUCUUUCACGUGCGCGUGAAAGAGAGAAGUGAACCAGAGAAACACACAUUGUGGCAUAUUACCUGGUA, 1.09; for GUCCUCUUUCACGUGCGCGUGAAAGAGAGAAGUGAACCAGAGAAACACACAUUGUGGUAUAUGACCUGGUA, 0.135.

On to GUCCUCUUUCACGUGCGCGUGAAAGAGAGAAGUGAACCAGAGAAACACACCUUGUCGUAUAUUACCUGGUA, for which the self-cleavage came to 0.065. As for GUCCUCUUUCACGUGCGCGUGAAAGAGAGAAGUGAACCAGAGAAACACACAUUGUAGUAUAUUACCUGGUA, the self-cleavage is 0.197. As to GUCCUCUUUCACGUGCGCGUGAAAGAGAGAAGUGAACCAGAGAAACACACAUUGUGGUAUAUUAGCUGGUA, the self-cleavage amounted to 0.287.

Consider GUCCUCUUUCACGUGCGCGUGAAAGAGAGAAGUGAACCAGAGAAACACACAUUGUGGUAUAUUAACUGGUA, for which the self-cleavage came to 1.17. For GUCCUCUUUCACGUGCGCGUGAAAGAGAGAAGUGAACCAGAGAAACACACAGUGUGGUAUAUUACCUGGUA the value was 0.981; for GUCCUCUUUCACGUGCGCGUGAAAGAGAGAAGUGAACCAGAGAAACACACACUGUGGUAUAUUACCUGGUA, 0.738; for GUCCUCUUUCACGUGCGCGUGAAAGAGAGAAGUGAACCAGAGAAACACAUGUAGUGGUAUAUUACCUGGUA, 0.335.
